Values belong to the binder of their own block, whether it stands above or below them.
Experiments:
[1] = target: T1, human Netrin1, recombinant AVEXIS protein (biotinylated when immobilised) (human, UniProt O95631 25-604); test: AVEXIS, prey NTN1 on bait NTN3
T1 construct: also called NTN1
Source text: (§1) The Matn4-bait served as an internal prey-protein control and was used for normalization of the A486 nm values; conditioned medium (CM) serves as negative control; n=3.

[2] = target: the molecule itself; test: AVEXIS, prey NTN3 on bait NTN3
Source text: as §1

[3] = target: T2, human Netrin-4, AVEXIS protein (human, UniProt Q9HB63 19-628); test: AVEXIS, prey NTN3 on bait NTN4
T2 construct: not shown: AVEXIS tag (bait or prey)
T2 sequence (looked up): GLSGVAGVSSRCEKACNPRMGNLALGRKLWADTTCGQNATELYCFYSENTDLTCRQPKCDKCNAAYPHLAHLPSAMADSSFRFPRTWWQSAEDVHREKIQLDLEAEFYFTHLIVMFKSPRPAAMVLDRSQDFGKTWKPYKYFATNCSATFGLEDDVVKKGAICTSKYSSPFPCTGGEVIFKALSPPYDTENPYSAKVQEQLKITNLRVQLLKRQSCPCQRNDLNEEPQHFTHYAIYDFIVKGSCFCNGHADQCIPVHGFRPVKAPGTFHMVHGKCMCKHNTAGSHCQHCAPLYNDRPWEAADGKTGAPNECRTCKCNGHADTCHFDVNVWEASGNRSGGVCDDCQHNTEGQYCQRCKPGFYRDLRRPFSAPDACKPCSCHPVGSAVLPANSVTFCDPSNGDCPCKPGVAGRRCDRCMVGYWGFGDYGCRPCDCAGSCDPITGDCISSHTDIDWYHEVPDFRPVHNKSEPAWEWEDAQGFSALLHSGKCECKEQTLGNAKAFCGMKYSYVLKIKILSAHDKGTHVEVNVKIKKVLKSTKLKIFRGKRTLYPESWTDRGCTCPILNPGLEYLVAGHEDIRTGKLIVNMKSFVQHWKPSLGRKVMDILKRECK
Source text: as §1

[4] = target: T1, human Netrin1, recombinant AVEXIS …; test: AVEXIS, prey on bait NTN1; white = No binding
Source text: as §1

[5] = target: the molecule itself; test: AVEXIS, prey on bait NTN3; white = No binding
Source text: as §1

[6] = target: T2, human Netrin-4, AVEXIS protein; test: AVEXIS, prey on bait NTN4; white = No binding
Source text: as §1

[7] = target: T3, human Netrin-G1, AVEXIS protein (human, UniProt Q9Y2I2 29-510); test: AVEXIS, prey on bait NTNG1; white = No binding
T3 construct: not shown: AVEXIS tag (bait or prey)
T3 sequence (looked up): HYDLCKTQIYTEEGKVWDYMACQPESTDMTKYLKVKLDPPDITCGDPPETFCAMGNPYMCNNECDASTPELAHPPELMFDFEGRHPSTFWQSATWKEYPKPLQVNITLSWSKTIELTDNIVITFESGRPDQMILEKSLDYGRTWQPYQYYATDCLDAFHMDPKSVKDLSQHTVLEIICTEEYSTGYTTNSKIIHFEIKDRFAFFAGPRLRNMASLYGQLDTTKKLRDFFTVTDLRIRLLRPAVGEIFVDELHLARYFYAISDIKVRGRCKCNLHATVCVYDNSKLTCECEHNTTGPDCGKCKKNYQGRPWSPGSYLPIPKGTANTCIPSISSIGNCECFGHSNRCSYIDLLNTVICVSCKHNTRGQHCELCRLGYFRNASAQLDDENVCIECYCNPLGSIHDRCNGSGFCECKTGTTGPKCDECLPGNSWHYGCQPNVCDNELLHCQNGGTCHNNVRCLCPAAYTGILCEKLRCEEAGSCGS
Source text: as §1

[8] = target: T4, human Netrin-G2, AVEXIS protein (human, UniProt Q96CW9 18-507); test: AVEXIS, prey on bait NTNG2; white = No binding
T4 construct: not shown: AVEXIS tag (bait or prey)
T4 sequence (looked up): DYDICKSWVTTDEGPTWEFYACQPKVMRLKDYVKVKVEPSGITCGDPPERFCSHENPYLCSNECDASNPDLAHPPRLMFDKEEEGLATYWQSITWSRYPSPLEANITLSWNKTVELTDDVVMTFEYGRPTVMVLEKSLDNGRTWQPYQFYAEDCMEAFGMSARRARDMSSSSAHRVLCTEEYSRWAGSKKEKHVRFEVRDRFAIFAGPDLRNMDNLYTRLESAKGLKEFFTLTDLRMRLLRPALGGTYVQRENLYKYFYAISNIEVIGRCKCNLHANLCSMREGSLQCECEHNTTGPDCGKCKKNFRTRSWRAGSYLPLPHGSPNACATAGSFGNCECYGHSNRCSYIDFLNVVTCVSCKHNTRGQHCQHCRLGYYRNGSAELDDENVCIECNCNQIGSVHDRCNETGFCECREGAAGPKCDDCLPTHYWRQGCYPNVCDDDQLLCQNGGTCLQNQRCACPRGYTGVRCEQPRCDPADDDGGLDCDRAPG
Source text: as §1

[9] = target: T5, Matn4 ECD, mono-biotinylated bait protein (positive control); test: AVEXIS, prey on bait Matn4 (+), positive control for the prey; dark = Binding
T5 construct: extracellular domain; also called Matn4-bait
Source text: as §1

[10] = target: T6, human DRAXIN, AVEXIS prey or bait protein (human, UniProt Q8NBI3 26-349); test: AVEXIS, pentameric prey zebrafish DraxinB on bait hDRAXIN
T6 construct: It was tested in both bait and prey orientations
T6 sequence: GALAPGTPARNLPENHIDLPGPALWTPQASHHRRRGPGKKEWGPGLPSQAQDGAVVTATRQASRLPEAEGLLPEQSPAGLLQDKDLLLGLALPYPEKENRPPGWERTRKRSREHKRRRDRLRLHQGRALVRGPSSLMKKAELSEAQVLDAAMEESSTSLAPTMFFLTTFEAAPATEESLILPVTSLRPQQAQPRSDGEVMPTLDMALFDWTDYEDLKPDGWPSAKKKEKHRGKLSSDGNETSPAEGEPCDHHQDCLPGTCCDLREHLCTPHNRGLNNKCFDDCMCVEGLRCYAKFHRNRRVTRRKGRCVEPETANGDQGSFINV

[11] = target: T7, zebrafish DraxinA, AVEXIS prey or bait protein (zebrafish, UniProt Q4V9H3 24-360); test: AVEXIS, pentameric prey zebrafish DraxinB on bait zDraxinA
T7 construct: Prey and bait forms of the same protein are kept as one molecule; Preys are pentameric except in the monomeric-prey experiments; also called DraxinA prey protein
T7 chain: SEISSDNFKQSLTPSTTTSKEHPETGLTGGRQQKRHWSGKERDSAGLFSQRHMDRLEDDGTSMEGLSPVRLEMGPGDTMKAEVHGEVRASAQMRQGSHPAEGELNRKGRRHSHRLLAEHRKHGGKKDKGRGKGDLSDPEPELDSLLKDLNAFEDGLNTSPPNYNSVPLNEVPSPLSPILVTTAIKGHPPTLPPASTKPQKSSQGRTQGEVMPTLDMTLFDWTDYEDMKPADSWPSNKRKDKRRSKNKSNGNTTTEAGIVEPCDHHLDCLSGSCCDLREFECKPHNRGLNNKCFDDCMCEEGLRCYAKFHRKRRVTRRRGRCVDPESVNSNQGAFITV

[12] = target: the molecule itself; test: AVEXIS, pentameric prey zebrafish DraxinB on bait zDraxinB
[13] = target: T7, zebrafish DraxinA, AVEXIS prey or bait …; test: AVEXIS, prey on bait zDraxinA, lower value; white = No binding
[14] = target: T7, zebrafish DraxinA, AVEXIS prey or bait …; test: AVEXIS, prey on bait zDraxinA, upper value; white = No binding
[15] = target: the molecule itself; test: AVEXIS, prey on bait zDraxinB, lower value; white = No binding
[16] = target: the molecule itself; test: AVEXIS, prey on bait zDraxinB, upper value; white = No binding
[17] = target: T8, zebrafish Netrin1a, AVEXIS bait or prey protein (zebrafish); test: AVEXIS competition: Netrin1a bait, DCC prey, purified Draxin as inhibitor
T8 construct: Prey and bait forms are kept as one molecule; also called Ntn1a; Netrin1a bait

[18] = target: T8, zebrafish Netrin1a, AVEXIS bait or prey …; test: AVEXIS competition: Netrin1a bait, Unc5b prey, purified Draxin as inhibitor
[19] = target: T8, zebrafish Netrin1a, AVEXIS bait or prey …; test: AVEXIS competition: Netrin1a bait, monomeric DCC prey, Draxin added 30 min before the prey
[20] = target: T8, zebrafish Netrin1a, AVEXIS bait or prey …; test: AVEXIS competition: Netrin1a bait, monomeric DCC prey, Draxin added together with the prey
[21] = target: T8, zebrafish Netrin1a, AVEXIS bait or prey …; test: AVEXIS competition: Netrin1a bait preincubated with monomeric DCC prey, Draxin added 30 min after the prey

- binding result [1]: no binding
- binding result [3]: no binding
- A486nm [4]: 0.068
- A486nm [6]: 0.064
- A486nm [7]: 0.069
- A486nm [8]: 0.06
- A486nm [9]: 0.224
B1: human Netrin-3, AVEXIS protein (ligand)
chain: not shown
notes: not shown: AVEXIS tag (bait or prey)
- binding result [2]: no binding
- A486nm [5]: 0.068

- binding result [10]: no binding
- binding result [11]: no binding
- A486nm [13]: 0.056
- A486nm [14]: 0.061
B2: zebrafish DraxinB, AVEXIS protein (ligand)
chain: TNTHHNSPMEVFSENIIIPPKPEASIHHHTHQRTDRGRKERMTASQLRERPRIAIFHTQNEGPDLEGLSPVRLEMEPADKRRVMTPRKKTFMGSDSLIQEKMNISPGAETPEKAMRRPTVRKVFGGHITRAPHEEESLASGKKRRVSFDQRLNKASFGSPTEPVLPAATVGTFILPITAAVDGNPNPSSEPQVRRYLGGDVAPTFNMALFDWTDYEDMRPGDKKQYSKKQGSEKQATQSPSTGLVRLTSENNVCKHHLDCLPGSCCNLRKHVCELHNRGFNNKCYDSCMCEEGLRCYAKSHRHYRITRKKGQCVDPEDLNHAVSRWMQM
- binding result [12]: no binding
- A486nm [15]: 0.059
- A486nm [16]: 0.057

- IC50 (read off the curve) [17]: ~70 nM
- IC50 (read off the curve) [18]: ~10 nM
- IC50 (read off the curve) [19]: ~7 nM
- IC50 (read off the curve) [20]: ~10 nM
- IC50 (read off the curve) [21]: ~20 nM
B3: purified His-tagged full-length zebrafish Draxin protein (Draxin-CD4d3+4-6XHis) (ligand)
chain: T7 chain
notes: Expressed in HEK293-6E cells and purified on HisTrap HP; also called purified full length DraxinA; purified DraxinA; not shown: rat Cd4d3+4 tag and 6xHis
